# According to US20250171549A1:
# Several values for one entry are separate records, joined by “and”; a condition that tells them apart may be missing. Identical values can stand only once.
# B1: Antibody 2 IgG2 (antibody, V domains shown)
# VH: QVQLVESGGGVVQPGRSLRLSCAASGFTFSNYGMHWVRQAPGKGLEWVAVISYDGSNKFYADSVKGRFTISRDNSKKTLYLQMSSLRVEDTAVYYCARAGGIGRFDYWGQGTLVTVSS
# VL: DFVMTQTPLSLSVTPGQPASISCKYSQSLLHSDGKTYLFWYLQKPGQPPHLLIYEVSNRFSGVPDRFSGSGSGTDFTLKISRVEAEDVGLYYCMQTLKLPLTFGGGTKVEINR
# Columns and labels:
# [1] = molecular target: cynomolgus monkey CCR8 (comprising threonine at position four) (cynomolgus monkey); test: flow cytometry, primary cynomolgus Tregs (PBMC, CD4+CD25+CD127- gate)
# [2] = molecular target: cynomolgus monkey CCR8 (comprising threonine at position four) (cynomolgus monkey); test: KinExA, 293T cells expressing cynomolgus CCR8
# Chain of cynomolgus monkey CCR8 (comprising threonine at position four) (cynomolgus monkey) (O97665 other isoform, or with tags, fused parts or gaps): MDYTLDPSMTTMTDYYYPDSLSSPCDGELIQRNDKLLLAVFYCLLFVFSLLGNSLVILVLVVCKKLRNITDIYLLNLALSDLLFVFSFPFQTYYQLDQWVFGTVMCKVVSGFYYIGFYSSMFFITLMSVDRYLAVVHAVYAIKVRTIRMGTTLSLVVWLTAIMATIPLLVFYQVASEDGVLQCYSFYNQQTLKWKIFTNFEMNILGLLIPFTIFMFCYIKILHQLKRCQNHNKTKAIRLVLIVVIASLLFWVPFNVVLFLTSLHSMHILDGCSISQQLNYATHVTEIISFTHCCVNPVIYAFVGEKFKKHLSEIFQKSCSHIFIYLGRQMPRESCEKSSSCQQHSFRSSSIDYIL
binder,measurement,setting,value
B1,"CCR8+CD127-CD25+CD4, % positive",[1],8.5% and 17.9%
same,Kd,[2],> 50 nM
